These are literature values, as cited in patent US8623606B2, “Screening method for GPCR ligands” (Max-Planck-Gesellschaft zur Forderung der wissenschaften …, priority 2006, dated 2014).

Where two headings read alike, the source gives them in different places.

The target in data set [1] is T1, CRF1 receptor (Homo sapiens, UniProt P34998).
T1 sequence (P34998 24-415): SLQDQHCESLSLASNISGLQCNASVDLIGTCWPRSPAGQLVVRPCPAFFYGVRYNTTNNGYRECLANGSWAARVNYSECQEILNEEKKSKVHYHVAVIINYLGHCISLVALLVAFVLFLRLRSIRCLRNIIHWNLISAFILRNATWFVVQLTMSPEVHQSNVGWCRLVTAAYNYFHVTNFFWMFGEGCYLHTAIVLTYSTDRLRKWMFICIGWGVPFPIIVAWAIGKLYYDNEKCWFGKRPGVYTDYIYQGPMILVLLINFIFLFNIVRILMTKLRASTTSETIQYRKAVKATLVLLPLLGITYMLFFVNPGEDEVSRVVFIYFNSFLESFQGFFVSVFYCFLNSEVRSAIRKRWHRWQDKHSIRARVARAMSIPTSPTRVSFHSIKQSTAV

Data set [2] addresses T1, CRF1 receptor. This is another data set of the same source.
The subject of a further data set is CRF R1. The note with it: FIG. 2A legend.

As to “Ac-E*AEK*NRLXDII-CONH2 [12 amino acid analog of astressin]”, the “binding to the CRF1 receptor (in words)” value with CRF1 receptor [1] (FIG. 2B legend) was “binds tightly”. In addition, the Kd with CRF1 receptor [1] (as reported in Yamada et al., read-out: binding constant to the N-terminal domain) is 5 nM; in the data set with CRF1 receptor [1] (literature value, read-out: affinity of binding to the CRF1 receptor), 5.5 nM. In addition, the “influence on the J-domain signaling” value with CRF1 receptor [2] is given as “devoid of any detectable influence”.
Regarding “Ucn1-19: N-terminal activation domain from the CRF R1 agonist rat urocortin (DDPPLSIDLTFHLLRTLLEIE; listed as Homo sapiens)”, the “CRF R1 activation potency (testosterone production)” value in the data set on CRF R1 is reported as “Neither of the isolated domains is active alone”.
On to “consensus peptide derived from the C-terminus of CRF R1 antagonists: consensus peptide derived from the C-terminus of CRF R1 antagonists (NRKLLDEV; listed as Homo sapiens)”, for which, in the data set on CRF R1, the “CRF R1 activation potency (testosterone production)” value is listed as “Neither of the isolated domains is active alone”.
